Biological target: Recombinant His-tagged S6K1 T389E/S424D/S429D (S6K1*), in vitro translated (human, UniProt P23443-2 1-502, T389E | S424D | S429D)
Assay: SPR

Sequence of Recombinant His-tagged S6K1 T389E/S424D/S429D (S6K1*), in vitro translated (P23443 24-525 T412E/S447D/S452D): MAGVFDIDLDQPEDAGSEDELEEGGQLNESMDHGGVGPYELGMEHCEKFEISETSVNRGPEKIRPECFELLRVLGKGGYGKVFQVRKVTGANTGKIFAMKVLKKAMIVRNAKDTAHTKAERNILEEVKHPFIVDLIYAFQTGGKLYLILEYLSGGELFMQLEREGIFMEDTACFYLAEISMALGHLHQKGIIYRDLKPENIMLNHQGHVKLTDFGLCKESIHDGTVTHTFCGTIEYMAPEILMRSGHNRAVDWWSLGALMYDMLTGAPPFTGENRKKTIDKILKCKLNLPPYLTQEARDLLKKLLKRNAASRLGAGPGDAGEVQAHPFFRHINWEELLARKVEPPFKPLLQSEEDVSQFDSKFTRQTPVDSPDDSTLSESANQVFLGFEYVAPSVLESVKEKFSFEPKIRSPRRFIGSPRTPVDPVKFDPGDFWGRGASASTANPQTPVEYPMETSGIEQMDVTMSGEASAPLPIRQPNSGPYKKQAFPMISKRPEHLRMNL

Kd: 56 nM
B1: EPRS linker (Pro683 to Asn1023 of human glutamyl-prolyl tRNA synthetase), His tag removed (domain or fragment, UniProt P07814 683-1023, looked up)
chain: PYEPVSPYSCKEAPCVLIYIPDGHTKEMPTSGSKEKTKVEATKNETSAPFKERPTPSLNNNCTTSEDSLVLYNRVAVQGDVVRELKAKKAPKEDVDAAVKQLLSLKAEYKEKTGQEYKPGNPPAEIGQNISSNSSASILESKSLYDEVAAQGEVVRKLKAEKSPKAKINEAVECLLSLKAQYKEKTGKEYIPGQPPLSQSSDSSPTRNSEPAGLETPEAKVLFDKVASQGEVVRKLKTEKAPKDQVDIAVQELLQLKAQYKSLIGVEYKPVSATGAEDKDKKKKEKENKSEKQNKPQKQNDGQRKDPSKNQGGGLSSSGAGEGQGPKKQTRLGLEAKKEEN

Reference: publication PMC6415305 (Molecular cell, 2019)
